Read-outs that look alike come from different tables or passages of the source.
T1: CD25 (recombinant) (human, UniProt P01589 22-213, limits assumed)
T1 construct: bought protein; also called IL2-R alpha; IL2-Rα
T1 sequence (looked up): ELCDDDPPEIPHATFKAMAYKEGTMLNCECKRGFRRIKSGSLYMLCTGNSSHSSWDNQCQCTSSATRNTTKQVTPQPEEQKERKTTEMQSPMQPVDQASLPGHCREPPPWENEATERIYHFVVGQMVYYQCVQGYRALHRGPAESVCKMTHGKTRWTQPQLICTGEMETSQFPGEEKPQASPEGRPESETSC


How the values were obtained:
CD25 (recombinant) = target: T1, CD25 (recombinant); experiment: SPR (BIAcore)
cynomolgous monkey CD25 [1] = target: T2, cynomolgous monkey CD25 (cynomolgous monkey); experiment: SPR (BIAcore), cynomolgous CD25
T2 construct: also called cmCD25; cm

cynomolgous monkey CD25 [2] = target: T2, cynomolgous monkey CD25; experiment: SPR (BIAcore), cynomolgous CD25; remark: listed apart in the source

Binder	Kd (CD25 (recombinant)) [nM]	Kd (cynomolgous monkey CD25 [1]) [nM]	Kd (cynomolgous monkey CD25 [2]) [nM]
daclizumab variant S77 (antibody, IgG1, name in Kabat numbering, V domains shown, IgG1; Kabat positions; also called I48M; DAC I48M) VH: QVQLVQSGAEVKKPGSSVKVSCKASGYTFTSYRMHWVRQAPGQGLEWMGYINPSTGYTEYNQKFKDKATITADESTNTAYMELSSLRSEDTAVYYCARGGGVFDYWGQGTLVTVSS VL: DIQMTQSPSTLSASVGDRVTITCSASSSISYMHWYQQKPGKAPKLLIYTTSNLASGVPARFSGSGSGTEFTLTISSLQPDDFATYYCHQRSTYPLTFGQGTKVEVK	0.478		
Variant C63 (antibody, V domains shown) VH: QVQLVQSGAEVKKPGSSVKVSCKASGYTFTSYRMHWVRQAPGQGLEWMGYIKPNSGRTEYNQKFKDKATITADESTNTAYMELSSLRSEDTAVYYCARGGGVFDYWGQGTLVTVSS VL: DIQMTQSPSTLSASVGDRVTITCSASSKISYMHWYQQKPGKAPKLLIYTTSDLASGVPARFSGSGSGTEFTLTISSLQPDDFATYYCHQRSTYPLTFGQGTKVEVK		0.063	0.063
Variant C52 (antibody, V domains shown) VH: QVQLVQSGAEVKKPGSSVKVSCKASGYTFTSYRMHWVRQAPGQGLEWMGYIKPNSGYTEYNQKFKDKATITADESTNTAYMELSSLRSEDTAVYYCARGGGVFDYWGQGTLVTVSS VL: DIQMTQSPSTLSASVGDRVTITCSASSKISYMHWYQQKPGKAPKLLIYTTSDLASGVPARFSGSGSGTEFTLTISSLQPDDFATYYCHQRSTYPLTFGQGTKVEVK		0.075	0.075
Variant C48 (antibody, V domains shown) VH: QVQLVQSGAEVKKPGSSVKVSCKASGYTFTSYRMHWVRQAPGQGLEWMGYIRPKSGYTEYNQKFKDKATITADESTNTAYMELSSLRSEDTAVYYCARGGGVFDYWGQGTLVTVSS VL: DIQMTQSPSTLSASVGDRVTITCSASSKISYMHWYQQKPGKAPKLLIYTTSDLASGVPARFSGSGSGTEFTLTISSLQPDDFATYYCHQRSTYPLTFGQGTKVEVK		0.053	0.053
Variant C54 (antibody, V domains shown) VH: QVQLVQSGAEVKKPGSSVKVSCKASGYTFTSYRMHWVRQAPGQGLEWMGYISPRSGRTEYNQKFKDKATITADESTNTAYMELSSLRSEDTAVYYCARGGGVFDYWGQGTLVTVSS VL: DIQMTQSPSTLSASVGDRVTITCSASSKISYMHWYQQKPGKAPKLLIYTTSDLASGVPARFSGSGSGTEFTLTISSLQPDDFATYYCHQRSTYPLTFGQGTKVEVK		0.055	0.055
Variant C51 (antibody, V domains shown) VH: QVQLVQSGAEVKKPGSSVKVSCKASGYTFTSYRMHWVRQAPGQGLEWMGYIKPNKGYTEYNQKFKDKATITADESTNTAYMELSSLRSEDTAVYYCARGGGVFDYWGQGTLVTVSS VL: DIQMTQSPSTLSASVGDRVTITCSASSKISYMHWYQQKPGKAPKLLIYTTSDLASGVPARFSGSGSGTEFTLTISSLQPDDFATYYCHQRSTYPLTFGQGTKVEVK		0.093	0.093
Variant C61 (antibody, V domains shown) VH: QVQLVQSGAEVKKPGSSVKVSCKASGYTFTSYRMHWVRQAPGQGLEWMGYISPNSGRTEYNQKFKDKATITADESTNTAYMELSSLRSEDTAVYYCARGGGVFDYWGQGTLVTVSS VL: DIQMTQSPSTLSASVGDRVTITCSASSKISYMHWYQQKPGKAPKLLIYTTSDLASGVPARFSGSGSGTEFTLTISSLQPDDFATYYCHQRSTYPLTFGQGTKVEVK		0.055	0.055
Variant C62 (antibody, V domains shown) VH: QVQLVQSGAEVKKPGSSVKVSCKASGYTFTSYRMHWVRQAPGQGLEWMGYIKPNKGRTEYNQKFKDKATITADESTNTAYMELSSLRSEDTAVYYCARGGGVFDYWGQGTLVTVSS VL: DIQMTQSPSTLSASVGDRVTITCSASSKISYMHWYQQKPGKAPKLLIYTTSDLASGVPARFSGSGSGTEFTLTISSLQPDDFATYYCHQRSTYPLTFGQGTKVEVK		0.1	0.1
Variant C55 (antibody, V domains shown) VH: QVQLVQSGAEVKKPGSSVKVSCKASGYTFTSYRMHWVRQAPGQGLEWMGYISPKKGRTEYNQKFKDKATITADESTNTAYMELSSLRSEDTAVYYCARGGGVFDYWGQGTLVTVSS VL: DIQMTQSPSTLSASVGDRVTITCSASSKISYMHWYQQKPGKAPKLLIYTTSDLASGVPARFSGSGSGTEFTLTISSLQPDDFATYYCHQRSTYPLTFGQGTKVEVK		0.049	0.049
Variant C59 (antibody, V domains shown) VH: QVQLVQSGAEVKKPGSSVKVSCKASGYTFTSYRMHWVRQAPGQGLEWMGYIRPKSGRTEYNQKFKDKATITADESTNTAYMELSSLRSEDTAVYYCARGGGVFDYWGQGTLVTVSS VL: DIQMTQSPSTLSASVGDRVTITCSASSKISYMHWYQQKPGKAPKLLIYTTSDLASGVPARFSGSGSGTEFTLTISSLQPDDFATYYCHQRSTYPLTFGQGTKVEVK		0.05	0.05
Variant C47 (antibody, V domains shown) VH: QVQLVQSGAEVKKPGSSVKVSCKASGYTFTSYRMHWVRQAPGQGLEWMGYIRPKKGYTEYNQKFKDKATITADESTNTAYMELSSLRSEDTAVYYCARGGGVFDYWGQGTLVTVSS VL: DIQMTQSPSTLSASVGDRVTITCSASSKISYMHWYQQKPGKAPKLLIYTTSDLASGVPARFSGSGSGTEFTLTISSLQPDDFATYYCHQRSTYPLTFGQGTKVEVK		0.1	0.1
Variant C57 (antibody, V domains shown) VH: QVQLVQSGAEVKKPGSSVKVSCKASGYTFTSYRMHWVRQAPGQGLEWMGYIKPKSGRTEYNQKFKDKATITADESTNTAYMELSSLRSEDTAVYYCARGGGVFDYWGQGTLVTVSS VL: DIQMTQSPSTLSASVGDRVTITCSASSKISYMHWYQQKPGKAPKLLIYTTSDLASGVPARFSGSGSGTEFTLTISSLQPDDFATYYCHQRSTYPLTFGQGTKVEVK		0.078	0.078
Variant C45 (antibody, V domains shown) VH: QVQLVQSGAEVKKPGSSVKVSCKASGYTFTSYRMHWVRQAPGQGLEWMGYISPKSGYTEYNQKFKDKATITADESTNTAYMELSSLRSEDTAVYYCARGGGVFDYWGQGTLVTVSS VL: DIQMTQSPSTLSASVGDRVTITCSASSKISYMHWYQQKPGKAPKLLIYTTSDLASGVPARFSGSGSGTEFTLTISSLQPDDFATYYCHQRSTYPLTFGQGTKVEVK		0.055	0.055

Results, then the binder that gave them:

Kd (CD25 (recombinant)) [nM]	Kd (cynomolgous monkey CD25 [1]) [nM]	Kd (cynomolgous monkey CD25 [2]) [nM]	Binder
	0.042	0.042	Variant C44 (antibody, V domains shown) VH: QVQLVQSGAEVKKPGSSVKVSCKASGYTFTSYRMHWVRQAPGQGLEWMGYISPKKGYTEYNQKFKDKATITADESTNTAYMELSSLRSEDTAVYYCARGGGVFDYWGQGTLVTVSS VL: DIQMTQSPSTLSASVGDRVTITCSASSKISYMHWYQQKPGKAPKLLIYTTSDLASGVPARFSGSGSGTEFTLTISSLQPDDFATYYCHQRSTYPLTFGQGTKVEVK
	0.0079	0.0079	Variant C49 (antibody, V domains shown) VH: QVQLVQSGAEVKKPGSSVKVSCKASGYTFTSYRMHWVRQAPGQGLEWMGYISPNKGYTEYNQKFKDKATITADESTNTAYMELSSLRSEDTAVYYCARGGGVFDYWGQGTLVTVSS VL: DIQMTQSPSTLSASVGDRVTITCSASSKISYMHWYQQKPGKAPKLLIYTTSDLASGVPARFSGSGSGTEFTLTISSLQPDDFATYYCHQRSTYPLTFGQGTKVEVK
	< 0.0024	< 0.0024	Variant C53 (antibody, V domains shown) VH: QVQLVQSGAEVKKPGSSVKVSCKASGYTFTSYRMHWVRQAPGQGLEWMGYISPRKGRTEYNQKFKDKATITADESTNTAYMELSSLRSEDTAVYYCARGGGVFDYWGQGTLVTVSS VL: DIQMTQSPSTLSASVGDRVTITCSASSKISYMHWYQQKPGKAPKLLIYTTSDLASGVPARFSGSGSGTEFTLTISSLQPDDFATYYCHQRSTYPLTFGQGTKVEVK
	0.026	0.026	Variant C50 (antibody, V domains shown) VH: QVQLVQSGAEVKKPGSSVKVSCKASGYTFTSYRMHWVRQAPGQGLEWMGYISPNSGYTEYNQKFKDKATITADESTNTAYMELSSLRSEDTAVYYCARGGGVFDYWGQGTLVTVSS VL: DIQMTQSPSTLSASVGDRVTITCSASSKISYMHWYQQKPGKAPKLLIYTTSDLASGVPARFSGSGSGTEFTLTISSLQPDDFATYYCHQRSTYPLTFGQGTKVEVK
	< 0.0023	< 0.0023	Variant C60 (antibody, V domains shown) VH: QVQLVQSGAEVKKPGSSVKVSCKASGYTFTSYRMHWVRQAPGQGLEWMGYISPNKGRTEYNQKFKDKATITADESTNTAYMELSSLRSEDTAVYYCARGGGVFDYWGQGTLVTVSS VL: DIQMTQSPSTLSASVGDRVTITCSASSKISYMHWYQQKPGKAPKLLIYTTSDLASGVPARFSGSGSGTEFTLTISSLQPDDFATYYCHQRSTYPLTFGQGTKVEVK
	0.011	0.011	Variant C46 (antibody, V domains shown) VH: QVQLVQSGAEVKKPGSSVKVSCKASGYTFTSYRMHWVRQAPGQGLEWMGYIKPKSGYTEYNQKFKDKATITADESTNTAYMELSSLRSEDTAVYYCARGGGVFDYWGQGTLVTVSS VL: DIQMTQSPSTLSASVGDRVTITCSASSKISYMHWYQQKPGKAPKLLIYTTSDLASGVPARFSGSGSGTEFTLTISSLQPDDFATYYCHQRSTYPLTFGQGTKVEVK

Reference: US20200308290A1 (AbbVie / Abbott, published 2020)
